How the values were obtained:
Jak2 = Jak2 (UniProt O60674); experiment: phosphorylation enrichment, bacterial display (enrichment ratio); higher = better substrate or ligand; peptides without Tyr show the background
FGFR3 = FGFR3 (UniProt P22607); experiment: as above
Fyn = Fyn (UniProt P06241); experiment: as above
Fes = Fes (UniProt P07332); experiment: as above
Hck = Hck (UniProt P08631); experiment: as above
AncSZ = experiment: as above
EPHB1 = EPHB1 (UniProt P54762); experiment: as above
c-Abl (mouse) = experiment: as above
FGFR1 = FGFR1 (UniProt P11362); experiment: as above
Chain of FGFR1 (P11362 whole entry, looked up): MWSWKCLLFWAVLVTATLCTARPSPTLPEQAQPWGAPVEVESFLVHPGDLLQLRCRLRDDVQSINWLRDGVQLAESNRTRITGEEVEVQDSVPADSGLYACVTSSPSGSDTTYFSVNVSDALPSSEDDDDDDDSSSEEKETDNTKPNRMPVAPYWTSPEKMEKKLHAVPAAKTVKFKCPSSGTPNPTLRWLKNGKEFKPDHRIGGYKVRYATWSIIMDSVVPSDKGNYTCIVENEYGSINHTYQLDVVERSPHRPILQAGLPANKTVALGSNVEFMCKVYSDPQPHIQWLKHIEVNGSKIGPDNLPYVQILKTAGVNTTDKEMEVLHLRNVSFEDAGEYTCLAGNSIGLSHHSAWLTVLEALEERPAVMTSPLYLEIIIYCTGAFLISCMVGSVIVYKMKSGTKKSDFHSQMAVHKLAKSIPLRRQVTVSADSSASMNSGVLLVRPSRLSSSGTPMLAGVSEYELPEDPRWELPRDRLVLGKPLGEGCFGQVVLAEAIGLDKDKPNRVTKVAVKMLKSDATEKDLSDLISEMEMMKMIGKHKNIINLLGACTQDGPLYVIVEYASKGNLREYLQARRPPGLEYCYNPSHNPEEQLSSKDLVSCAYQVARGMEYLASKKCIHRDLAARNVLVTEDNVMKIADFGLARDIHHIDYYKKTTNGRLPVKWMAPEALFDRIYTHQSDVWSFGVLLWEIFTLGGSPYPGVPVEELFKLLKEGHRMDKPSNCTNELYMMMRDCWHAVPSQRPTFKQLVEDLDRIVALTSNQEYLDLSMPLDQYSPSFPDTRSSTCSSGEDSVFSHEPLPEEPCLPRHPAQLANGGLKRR

MERTK = MERTK (UniProt Q12866); experiment: as above
Chain of MERTK (Q12866 whole entry, looked up): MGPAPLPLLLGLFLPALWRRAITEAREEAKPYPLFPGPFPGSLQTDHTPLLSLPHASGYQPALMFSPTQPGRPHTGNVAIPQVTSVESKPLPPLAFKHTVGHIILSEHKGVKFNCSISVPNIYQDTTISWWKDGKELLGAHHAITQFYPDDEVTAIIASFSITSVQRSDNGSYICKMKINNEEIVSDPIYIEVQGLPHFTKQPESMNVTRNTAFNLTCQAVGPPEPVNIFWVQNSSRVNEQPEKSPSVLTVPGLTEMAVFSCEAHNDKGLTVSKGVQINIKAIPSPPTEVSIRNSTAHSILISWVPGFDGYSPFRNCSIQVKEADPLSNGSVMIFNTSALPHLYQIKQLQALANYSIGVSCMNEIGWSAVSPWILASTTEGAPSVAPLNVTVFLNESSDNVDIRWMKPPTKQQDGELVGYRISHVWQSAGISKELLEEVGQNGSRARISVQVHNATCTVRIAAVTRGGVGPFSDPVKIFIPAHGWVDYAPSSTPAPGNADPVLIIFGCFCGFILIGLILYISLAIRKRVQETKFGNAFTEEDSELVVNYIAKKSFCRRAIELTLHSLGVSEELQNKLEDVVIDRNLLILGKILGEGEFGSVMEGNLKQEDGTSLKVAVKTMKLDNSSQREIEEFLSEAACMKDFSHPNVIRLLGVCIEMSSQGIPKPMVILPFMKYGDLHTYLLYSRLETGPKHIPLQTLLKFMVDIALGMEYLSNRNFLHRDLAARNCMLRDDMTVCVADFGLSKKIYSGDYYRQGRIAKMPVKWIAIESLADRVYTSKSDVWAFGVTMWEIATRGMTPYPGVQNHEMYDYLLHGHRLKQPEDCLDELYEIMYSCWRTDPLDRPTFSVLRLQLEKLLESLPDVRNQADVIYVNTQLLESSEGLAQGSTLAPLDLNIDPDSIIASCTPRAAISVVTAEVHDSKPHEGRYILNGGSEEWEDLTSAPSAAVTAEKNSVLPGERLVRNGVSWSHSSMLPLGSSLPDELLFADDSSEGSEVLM

c-Src = experiment: as above
EPHB2 = EPHB2 (UniProt P29323); experiment: as above
Fer (mouse) = experiment: as above
c-Src SH2 = experiment: SH2 binding enrichment of the phosphorylated peptide, bacterial display (enrichment ratio); higher = better substrate or ligand; peptides without Tyr show the background
SHP2-C SH2 = experiment: as above
Grb2 SH2 = Grb2 SH2 (UniProt P62993); experiment: as above
Chain of Grb2 SH2 (P62993 whole entry, looked up, the tested form may be a part): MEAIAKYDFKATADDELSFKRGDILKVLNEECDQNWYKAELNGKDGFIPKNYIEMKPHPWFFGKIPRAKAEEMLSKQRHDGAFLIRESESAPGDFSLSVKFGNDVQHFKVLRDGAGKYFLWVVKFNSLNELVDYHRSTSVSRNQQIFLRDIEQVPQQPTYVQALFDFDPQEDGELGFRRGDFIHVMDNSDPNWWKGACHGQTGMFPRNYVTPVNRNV
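Wherever SH2 binding enrichment of the phosphorylated peptide, bacterial display is given: peptide library displayed on the E. coli surface as eCPX fusions, selected cells deep-sequenced, score is each peptide's frequency after selection divided by its frequency in the input.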
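Wherever phosphorylation enrichment, bacterial display is given: 11-residue human phosphosite peptides and single-mutation variants displayed on the E. coli surface, counted by deep sequencing, each peptide's frequency after selection divided by its frequency in the unselected input library; frequency after pTyr selection over input frequency; kinase dosed for 20-30% of maximal phosphorylation in three min.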

Chain of Fyn (P06241 whole entry, looked up): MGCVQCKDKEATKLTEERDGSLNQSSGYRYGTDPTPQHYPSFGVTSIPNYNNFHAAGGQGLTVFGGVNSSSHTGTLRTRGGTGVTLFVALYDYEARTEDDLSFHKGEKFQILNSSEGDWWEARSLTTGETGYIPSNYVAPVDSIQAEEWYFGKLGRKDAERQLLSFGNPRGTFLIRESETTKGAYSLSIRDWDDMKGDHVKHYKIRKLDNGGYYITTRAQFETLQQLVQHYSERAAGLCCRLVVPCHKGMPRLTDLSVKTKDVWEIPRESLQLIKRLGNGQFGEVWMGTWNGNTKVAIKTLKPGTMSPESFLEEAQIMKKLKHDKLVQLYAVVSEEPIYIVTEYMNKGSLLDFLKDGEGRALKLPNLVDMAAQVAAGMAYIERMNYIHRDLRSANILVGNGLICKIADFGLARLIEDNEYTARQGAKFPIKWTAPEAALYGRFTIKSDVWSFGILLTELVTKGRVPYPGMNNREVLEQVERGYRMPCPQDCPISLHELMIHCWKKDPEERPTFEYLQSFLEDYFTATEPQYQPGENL
Chain of Hck (P08631 whole entry, looked up): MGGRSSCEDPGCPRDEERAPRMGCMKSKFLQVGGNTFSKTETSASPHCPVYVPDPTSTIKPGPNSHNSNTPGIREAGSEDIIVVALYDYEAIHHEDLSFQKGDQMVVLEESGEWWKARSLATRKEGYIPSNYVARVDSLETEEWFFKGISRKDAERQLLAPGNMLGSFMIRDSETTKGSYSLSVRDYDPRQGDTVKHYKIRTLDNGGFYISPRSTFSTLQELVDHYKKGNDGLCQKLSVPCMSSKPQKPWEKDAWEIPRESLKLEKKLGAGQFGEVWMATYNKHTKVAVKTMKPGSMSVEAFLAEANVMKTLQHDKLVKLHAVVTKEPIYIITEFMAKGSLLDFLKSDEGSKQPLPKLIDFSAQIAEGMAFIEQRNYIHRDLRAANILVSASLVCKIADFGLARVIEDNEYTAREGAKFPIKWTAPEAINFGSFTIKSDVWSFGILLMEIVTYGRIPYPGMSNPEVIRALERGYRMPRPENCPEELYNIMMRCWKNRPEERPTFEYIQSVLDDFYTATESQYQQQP
Chain of EPHB1 (P54762 whole entry, looked up): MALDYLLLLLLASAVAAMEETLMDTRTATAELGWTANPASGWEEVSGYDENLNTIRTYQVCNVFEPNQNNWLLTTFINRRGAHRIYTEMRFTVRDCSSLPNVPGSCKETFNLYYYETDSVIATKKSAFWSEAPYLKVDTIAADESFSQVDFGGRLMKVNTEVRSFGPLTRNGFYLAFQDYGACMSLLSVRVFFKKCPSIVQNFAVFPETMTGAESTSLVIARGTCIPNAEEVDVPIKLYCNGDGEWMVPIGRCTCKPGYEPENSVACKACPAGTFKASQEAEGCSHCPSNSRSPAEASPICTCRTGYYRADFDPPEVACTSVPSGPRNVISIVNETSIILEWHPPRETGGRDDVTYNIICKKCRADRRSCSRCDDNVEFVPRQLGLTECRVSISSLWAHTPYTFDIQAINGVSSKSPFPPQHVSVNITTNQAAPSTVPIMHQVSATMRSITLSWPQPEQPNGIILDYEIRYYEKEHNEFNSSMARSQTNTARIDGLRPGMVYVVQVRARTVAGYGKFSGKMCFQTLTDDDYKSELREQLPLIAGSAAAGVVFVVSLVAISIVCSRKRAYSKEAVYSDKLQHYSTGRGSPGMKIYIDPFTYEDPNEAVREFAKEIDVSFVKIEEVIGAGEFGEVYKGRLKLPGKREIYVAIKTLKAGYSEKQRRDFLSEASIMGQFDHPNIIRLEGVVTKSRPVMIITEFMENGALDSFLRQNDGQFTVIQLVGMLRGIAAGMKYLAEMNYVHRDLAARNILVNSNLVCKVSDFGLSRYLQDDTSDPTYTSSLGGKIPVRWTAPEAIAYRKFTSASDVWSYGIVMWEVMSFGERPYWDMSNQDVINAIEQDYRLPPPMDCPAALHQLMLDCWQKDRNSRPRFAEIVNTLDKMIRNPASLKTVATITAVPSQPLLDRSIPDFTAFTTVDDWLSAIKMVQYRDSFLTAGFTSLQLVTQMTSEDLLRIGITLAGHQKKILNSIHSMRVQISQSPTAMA
Chain of FGFR3 (P22607 whole entry, looked up): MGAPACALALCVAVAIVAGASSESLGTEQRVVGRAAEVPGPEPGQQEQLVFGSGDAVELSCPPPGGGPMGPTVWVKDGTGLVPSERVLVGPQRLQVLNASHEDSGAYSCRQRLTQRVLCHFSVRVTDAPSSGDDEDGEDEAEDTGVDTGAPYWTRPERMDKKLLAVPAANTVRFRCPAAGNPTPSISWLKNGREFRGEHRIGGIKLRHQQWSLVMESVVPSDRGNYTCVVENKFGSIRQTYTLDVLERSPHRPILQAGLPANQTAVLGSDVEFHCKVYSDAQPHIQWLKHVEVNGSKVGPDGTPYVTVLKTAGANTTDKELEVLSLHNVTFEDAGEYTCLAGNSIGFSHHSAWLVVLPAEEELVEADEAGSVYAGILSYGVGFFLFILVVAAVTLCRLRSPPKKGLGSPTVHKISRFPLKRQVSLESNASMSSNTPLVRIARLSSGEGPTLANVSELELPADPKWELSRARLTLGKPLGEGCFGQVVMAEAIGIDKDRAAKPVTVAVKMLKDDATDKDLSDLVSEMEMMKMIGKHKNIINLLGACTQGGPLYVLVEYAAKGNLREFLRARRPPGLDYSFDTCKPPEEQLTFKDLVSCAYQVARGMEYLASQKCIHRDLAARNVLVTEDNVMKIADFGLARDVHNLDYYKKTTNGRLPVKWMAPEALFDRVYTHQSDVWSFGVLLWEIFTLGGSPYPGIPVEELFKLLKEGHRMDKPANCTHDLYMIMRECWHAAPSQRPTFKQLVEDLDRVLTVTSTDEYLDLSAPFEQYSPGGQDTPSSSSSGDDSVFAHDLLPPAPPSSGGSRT

Row | Sequence | phosphorylation enrichment (Jak2) | phosphorylation enrichment (FGFR3) | phosphorylation enrichment (Fyn) | phosphorylation enrichment (Fes) | phosphorylation enrichment (Hck) | phosphorylation enrichment (AncSZ) | phosphorylation enrichment (EPHB1) | phosphorylation enrichment (c-Abl (mouse)) | phosphorylation enrichment (FGFR1) | phosphorylation enrichment (MERTK) | phosphorylation enrichment (c-Src) | phosphorylation enrichment (EPHB2) | phosphorylation enrichment (Fer (mouse)) | SH2 binding enrichment (c-Src SH2) | SH2 binding enrichment (SHP2-C SH2) | SH2 binding enrichment (Grb2 SH2)
1 | VDEVLYEDSSA [MTHFS_Y197_T202A] | 1.29 | 0.609 | 0.502 | 1.16 | 0.716 | 1.47 | 0.637 | 0.923 | 0.679 | 0.508 | 0.647 | 0.577 | 2.08 | 0.551 | 0.979 | 0.834
2 | VDSIEYEVASQ [SLC7A7_Y7_T5I] | 1.36 | 0.729 | 0.491 | 1.18 | 0.567 | 1.22 | 0.594 | 0.821 | 0.451 | 0.545 | 0.466 | 0.618 | 0.464 | 0.452 | 0.741 | 0.793
3 | VECRVYAEDPF [PCCA_Y401_YF] | 1.6 | 0.845 | 0.553 | 1.68 | 0.578 | 1.43 | 0.766 | 1.11 | 0.495 | 0.481 | 0.693 | 0.677 | 0.669 | 0.54 | 0.426 | 0.674
4 | VEDHYYEGGIG [TKT_Y564] | 1.05 | 1.73 | 0.559 | 1.11 | 0.636 | 1.1 | 0.581 | 0.837 | 1.59 | 0.524 | 0.628 | 0.65 | 0.688 | 3.89 | 0.833 | 0.883
5 | VEDQYYCVDCY [FHL1_Y208] | 1.86 | 10.3 | 2.34 | 1.48 | 1.46 | 5.02 | 1.02 | 1.1 | 12 | 3.19 | 2.77 | 0.754 | 1.11 | 1.42 | 1.47 | 1.35
6 | VEKGSYSALRA [ABCC2_Y845_L849R] | 0.551 | 0.396 | 0.34 | 0.551 | 0.351 | 0.43 | 0.348 | 0.438 | 0.356 | 0.325 | 0.314 | 0.296 | 0.338 | 0.555 | 1.04 | 0.823
7 | VFPIDYYFPPQ [AR_Y552_L548F] | 6.13 | 12.9 | 0.816 | 0.914 | 0.851 | 5.64 | 3.22 | 0.922 | 13.8 | 2.24 | 1.34 | 3.65 | 0.536 | 1.04 | 1.08 | 1.24
8 | VKMLEYLGKDV [CASP5_Y74] | 0.591 | 0.453 | 0.454 | 0.726 | 0.491 | 1.07 | 0.422 | 0.57 | 0.375 | 0.504 | 0.337 | 0.651 | 0.413 | 0.389 | 0.77 | 0.662
9 | VKMLLYTEVTR [GDI1_Y93] | 1.23 | 0.883 | 0.759 | 1.43 | 1.24 | 1.32 | 3 | 0.83 | 0.529 | 2.58 | 0.834 | 1.25 | 1.08 | 0.771 | 0.706 | 0.869
10 | VKPENYWRLDI [VHL_Y175_R176W] | 1.39 | 0.895 | 0.381 | 1.15 | 0.443 | 1.13 | 0.814 | 0.839 | 0.783 | 0.588 | 0.377 | 0.61 | 0.441 | 0.586 | 0.876 | 0.902
11 | VKYGAYINDFK [GLB1_Y488_N484K] | 0.573 | 0.463 | 0.568 | 0.791 | 0.379 | 0.691 | 0.455 | 0.605 | 0.363 | 0.381 | 0.566 | 0.46 | 0.353 | 2.57 | 1.06 | 7.46
12 | VLDCHYPEDEV [C1QBP_Y188] | 1.3 | 0.88 | 0.464 | 1.27 | 0.629 | 1.22 | 0.589 | 0.919 | 0.596 | 0.556 | 0.571 | 0.725 | 0.632 | 0.468 | 0.929 | 1.01
13 | VLNKGYRMVVN [HINT1_Y94_G89V] | 0.433 | 0.396 | 0.383 | 0.539 | 0.368 | 0.557 | 0.362 | 0.361 | 0.392 | 0.339 | 0.326 | 0.343 | 0.311 | 0.424 | 0.538 | 0.707
14 | VLTSKYCGGGG [HBA1_Y141_R142C] | 0.634 | 0.577 | 0.429 | 0.772 | 0.467 | 0.603 | 0.474 | 0.747 | 0.384 | 0.391 | 0.354 | 0.419 | 0.394 | 0.545 | 0.804 | 0.884
15 | VNKGGYFSVNL [C3orf33_Y164_S160N] | 1.23 | 0.603 | 0.456 | 1.05 | 0.411 | 0.832 | 0.553 | 0.688 | 0.599 | 0.412 | 0.398 | 0.411 | 0.395 | 1.4 | 0.725 | 0.648
16 | VNKIFHPDFIV [LIG3_Y768_Y768H_YF] | 0.695 | 0.547 | 0.447 | 0.871 | 0.39 | 0.793 | 0.487 | 0.6 | 0.419 | 0.432 | 0.497 | 0.454 | 0.397 | 0.462 | 0.744 | 0.873

From the supplement of paper PMC10065799, “High-throughput profiling of sequence recognition by tyrosine kinases and SH2 domains using bacterial peptide display” (eLife, 2023)
